Measurements: patent publication US20220323445A1, “REDUCING IMMUNOGENICITY TO PEGLOTICASE” (Horizon Therapeutics Ireland DAC, priority 2020, published 2022)

Tested on: serum uric acid (sUA)
Assay: Serum uric acid (sUA) levels and sUA responders, open-label study of pegloticase with MTX (NCT03635957)
Format: in vivo, human
Procedure: The primary objective is to estimate the response rate during Month 6 (Weeks 20, 22, and 24), as measured by the sustained normalization of serum uric acid (SUA) to <6 mg/dL for at least 80% of the time during Month 6 in subjects receiving KXX with MTX.
The primary efficacy outcome endpoint is the sustained normalization of SUA to <6 mg/dL for at least 80% of the time during month 6 (weeks 20, 22, and 24) in subjects receiving KXX with MTX. This is slightly below the urate solubility threshold and this threshold has been the accepted standard for nearly all modern gout trials. Participants who achieve this endpoint were classified as “responders.” Serum uric acid (SUA) responders may also be defined as participants achieving and maintaining SUA <6 mg/dL for at least 80% of the time during Month 6 (Weeks 20, 22, and 24).
Blood samples may be collected prior to each pegloticase infusion for measurement of SUA levels using the Beckman Coulter AU System Uric Acid procedure. Participants were declared “non-responders” if there were SUA measures >6 mg/dL at 2 consecutive study visits beginning with the week 2 visit. […] If the SUA goal is not maintained before or at the 12-week mark, it was assumed that the participant had developed clinically relevant anti-pegloticase antibody and they received no further infusions. This assumption and subsequent discontinuation of pegloticase was consistent with the protocol of large phase III randomized controlled trials and the product label. A formal stopping rule was 2 occasions of SUA levels of greater than 6 mg/dL.
Clinical Chemistry—Blood samples were collected prior to each pegloticase infusion for measurement of SUA levels (primary efficacy parameter) using the Beckman Coulter AU System Uric Acid procedure. In this procedure uric acid is converted to hydrogen peroxide. Hydrogen peroxide reacts with reagent to produce a chromophore which is read bichromatically at 660/800 nm. The amount of dye formed is proportional to the uric acid concentration in the sample.
Serum samples for measurement of SUA levels were collected at the Screening Visit, the Week −4 Visit (prior to the first dose of MTX), and the Week −2 Visit during the MTX Run-in Period; within 48 hours prior to each pegloticase infusion and after the end of each pegloticase infusion prior to discharge from the site during the Pegloticase+IMM Period; at the non-infusion Week 52/End of Study/Early Termination Visits and at the Post Treatment 3 and 6 Month Follow-up Visits. Additional serum samples for SUA levels were collected at optional non-infusion (Frequent Sampling) Visits at Weeks 1 and 7. […] Subjects with SUA level >6 mg/dL at 2 consecutive visits beginning at Week 2 visit discontinued treatment, completed the End of Pegloticase Infusion Visit procedures within 2 weeks and continued the subject visits according to the protocol (without treatment).
Efficacy analyses were performed using the modified intention-to-treat (mITT) population, defined as all enrolled subjects who received ≥1 dose of pegloticase. The proportion of Month 6 responders was summarized, along with a 95% confidence interval for the proportion. The proportion of Month 3 and overall (Months 3 and 6 combined) responders was analyzed similarly.
A subject was declared a non-responder if the subject had SUA level >6 mg/dL at 2 consecutive study visits beginning with the Week 2 Visit. In addition, a subject who withdraws from study treatment for any reason after the first dose of pegloticase in the KXX+MTX Period and prior to Month 6 (for the primary endpoint) or Month 3 (for the secondary endpoint) was considered a non-responder if SUA values were not collected at the planned time points.
Patients were administered oral MTX (15 mg/week) and folate (1 mg/day) 4 weeks prior to the first pegloticase infusion (Day 1) and throughout the pegloticase treatment period. […]

[1] = Week 34 - Pre-Infusion, Month 6 sUA Responders
[2] = Week 34 - Pre-Infusion, mITT, n=10
[3] = Week 36 - Post-Infusion, Month 6 sUA Responders
[4] = Week 36 - Post-Infusion, mITT, n=6
[5] = Week 36 - Pre-Infusion, Month 6 sUA Responders
[6] = Week 36 - Pre-Infusion, mITT, n=9
[7] = Week 38 - Pre-Infusion, Month 6 sUA Responders
[8] = Week 38 - Pre-Infusion, mITT, n=5
[9] = Week 40 - Pre-Infusion, Month 6 sUA Responders
[10] = Week 40 - Pre-Infusion, mITT, n=3
[11] = Week 42 - Pre-Infusion, Month 6 sUA Responders
[12] = Week 42 - Pre-Infusion, mITT, n=3
[13] = Week 44 - Pre-Infusion, Month 6 sUA Responders

B1: pegloticase (protein)
chain: TYKKNDEVEFVRTGYGKDMIKVLHIQRDGKYHSIKEVATTVQLTLSSKKDYLHGDNSDVIPTDTIKNTVNVLAKFKGIKSIETFAVTICEHFLSSFKHVIRAQVYVEEVPWKRFEKNGVKHVHAFIYTPTGTHFCEVEQIRNGPPVIHSGIKDLKVLKTTQSGFEGFIKDQFTTLPEVKDRCFATQVYCKWRYHQGRDVDFEATWDTVRSIVLQKFAGPYDKGEYSPSVQKTLYDIQVLTLGQVPEIEDMEISLPNIHYLNIDMSKMGLINKEEVLLPLDNPYGKITGTVKRKLSSRL
modifications: monomethoxy PEG conjugated; Krystexxa Sequence
notes: covalent conjugate of uricase produced by a genetically modified strain of Escherichia coli and monomethoxypoly (ethylene glycol)
- sUA < 6 mg/dL, % [1]: (100%)
- sUA Change from Baseline, Mean [1]: -8.47 mg/dL
- sUA Change from Baseline, Median [1]: -7.95 mg/dL
- sUA Observed, Mean [1]: 0.82 mg/dL
- sUA Observed, Median [1]: 0.30 mg/dL
- sUA < 6 mg/dL, n (%) [2]: 10 (100%)
- sUA Change from Baseline, Mean (SD) [2]: −8.47 (3.248) mg/dL
- sUA Change from Baseline, Median [2]: -7.95 mg/dL
- sUA Observed, Mean (SD) [2]: 0.82 (1.046) mg/dL
- sUA Observed, Median [2]: 0.30 mg/dL
- sUA < 6 mg/dL, % [3]: (100%)
- sUA Change from Baseline, Mean [3]: -9.38 mg/dL
- sUA Change from Baseline, Median [3]: -9.20 mg/dL
- sUA Observed, Mean [3]: 0.30 mg/dL
- sUA Observed, Median [3]: 0.30 mg/dL
- sUA < 6 mg/dL, n (%) [4]: 6 (100%)
- sUA Change from Baseline, Mean (SD) [4]: −9.38 (3.799) mg/dL
- sUA Change from Baseline, Median [4]: -9.20 mg/dL
- sUA Observed, Mean (SD) [4]: 0.30 (0.000) mg/dL
- sUA Observed, Median [4]: 0.30 mg/dL
- sUA < 6 mg/dL, % [5]: ( 88.9%)
- sUA Change from Baseline, Mean [5]: -7.90 mg/dL
- sUA Change from Baseline, Median [5]: -8.60 mg/dL
- sUA Observed, Mean [5]: 1.58 mg/dL
- sUA Observed, Median [5]: 0.30 mg/dL
- sUA < 6 mg/dL, n (%) [6]: 8 (88.9%)
- sUA Change from Baseline, Mean (SD) [6]: −7.90 (4.094) mg/dL
- sUA Change from Baseline, Median [6]: -8.60 mg/dL
- sUA Observed, Mean (SD) [6]: 1.58 (2.425) mg/dL
- sUA Observed, Median [6]: 0.30 mg/dL
- sUA < 6 mg/dL, % [7]: (100%)
- sUA Change from Baseline, Mean [7]: -8.41 mg/dL
- sUA Change from Baseline, Median [7]: -8.60 mg/dL
- sUA Observed, Mean [7]: 0.93 mg/dL
- sUA Observed, Median [7]: 0.30 mg/dL
- sUA < 6 mg/dL, n (%) [8]: 5 (100%)
- sUA Change from Baseline, Mean (SD) [8]: −8.41 (5.229) mg/dL
- sUA Change from Baseline, Median [8]: -8.60 mg/dL
- sUA Observed, Mean (SD) [8]: 0.93 (1.583) mg/dL
- sUA Observed, Median [8]: 0.30 mg/dL
- sUA < 6 mg/dL, % [9]: (100%)
- sUA Change from Baseline, Mean [9]: -11.30 mg/dL
- sUA Change from Baseline, Median [9]: -9.80 mg/dL
- sUA Observed, Mean [9]: 0.30 mg/dL
- sUA Observed, Median [9]: 0.30 mg/dL
- sUA < 6 mg/dL, n (%) [10]: 3 (100%)
- sUA Change from Baseline, Mean (SD) [10]: −11.30 (3.686) mg/dL
- sUA Change from Baseline, Median [10]: -9.80 mg/dL
- sUA Observed, Mean (SD) [10]: 0.30 (0.000) mg/dL
- sUA Observed, Median [10]: 0.30 mg/dL
- sUA < 6 mg/dL, % [11]: (100%)
- sUA Change from Baseline, Mean [11]: -11.30 mg/dL
- sUA Change from Baseline, Median [11]: -9.80 mg/dL
- sUA Observed, Mean [11]: 0.30 mg/dL
- sUA Observed, Median [11]: 0.30 mg/dL
- sUA < 6 mg/dL, n (%) [12]: 3 (100%)
- sUA Change from Baseline, Mean (SD) [12]: −11.30 (3.686) mg/dL
- sUA Change from Baseline, Median [12]: -9.80 mg/dL
- sUA Observed, Mean (SD) [12]: 0.30 (0.000) mg/dL
- sUA Observed, Median [12]: 0.30 mg/dL
- sUA < 6 mg/dL, % [13]: (100%)
- sUA Change from Baseline, Mean [13]: -10.55 mg/dL
- sUA Change from Baseline, Median [13]: -9.80 mg/dL
- sUA Observed, Mean [13]: 1.05 mg/dL
- sUA Observed, Median [13]: 0.30 mg/dL
